For test [1], the target named is HIV-1 Env pseudovirus 231965.c01 (HIV-1). Put plainly: cell-based or functional assay.
The target of test [2] is HIV-1 Env pseudovirus 6540.v4.c1 (HIV-1). As to the kind of experiment: cell-based or functional assay.
Test [3] has as its target HIV-1 Env pseudovirus 6952.v1.c20 (HIV-1). As to the kind of experiment: cell-based or functional assay.
The target of test [4] is HIV-1 Env pseudovirus P0402_c2_11 (HIV-1). Put plainly: cell-based or functional assay.
The target of test [5] is HIV-1 Env pseudovirus C2101.c01 (HIV-1). Put plainly: cell-based or functional assay.
Test [6] has as its target HIV-1 Env pseudovirus R1166.c01 (HIV-1). As to the kind of experiment: cell-based or functional assay.
The target in test [7] is HIV-1 Env pseudovirus 6545.v4.c1 (HIV-1). Put plainly: cell-based or functional assay.
The target of test [8] is HIV-1 Env pseudovirus 6480.v4.c25 (HIV-1). Put plainly: cell-based or functional assay.
Test [9] has as its target HIV-1 Env pseudovirus 0815.v3.c3 (HIV-1). As to the kind of experiment: cell-based or functional assay.
Test [10] concerns the target HIV-1 Env pseudovirus T255-34 (HIV-1). Put plainly: cell-based or functional assay.
Test [11] addresses HIV-1 Env pseudovirus C3347.c11 (HIV-1). Put plainly: cell-based or functional assay.
Test [12] has as its target HIV-1 Env pseudovirus X1254_c3 (HIV-1). Put plainly: cell-based or functional assay.
Test [13] concerns the target HIV-1 Env pseudovirus A07412M1.vrc12 (HIV-1). Put plainly: cell-based or functional assay.
Test [14] deals with HIV-1 Env pseudovirus 235-47 (HIV-1). As to the kind of experiment: cell-based or functional assay.
Test [15] addresses HIV-1 Env pseudovirus T250-4 (HIV-1). As to the kind of experiment: cell-based or functional assay.
In test [16] the target is HIV-1 Env pseudovirus 211-9 (HIV-1). As to the kind of experiment: cell-based or functional assay.
The target in test [17] is HIV-1 Env pseudovirus 3103.v3.c10 (HIV-1). As to the kind of experiment: cell-based or functional assay.
Test [18] has as its target HIV-1 Env pseudovirus BJOX009000.02.4 (HIV-1). As to the kind of experiment: cell-based or functional assay.
The target in test [19] is HIV-1 Env pseudovirus R2184.c04 (HIV-1). Put plainly: cell-based or functional assay.
The target in test [20] is HIV-1 Env pseudovirus 3016.v5.c45 (HIV-1). As to the kind of experiment: cell-based or functional assay.
In test [21] the target is HIV-1 Env pseudovirus BJOX010000.06.2 (HIV-1). As to the kind of experiment: cell-based or functional assay.
Test [22] has as its target HIV-1 Env pseudovirus X2131_C1_B5 (HIV-1). Put plainly: cell-based or functional assay.
The target of test [23] is HIV-1 Env pseudovirus BJOX015000.11.5 (HIV-1). Put plainly: cell-based or functional assay.
Test [24] has as its target HIV-1 Env pseudovirus BJOX028000.10.3 (HIV-1). Put plainly: cell-based or functional assay.
The target in test [25] is HIV-1 Env pseudovirus 6041.v3.c23 (HIV-1). As to the kind of experiment: cell-based or functional assay.
Test [26] concerns the target HIV-1 Env pseudovirus 89-F1_2_25 (HIV-1). As to the kind of experiment: cell-based or functional assay.
Test [27] has as its target HIV-1 Env pseudovirus T251-18 (HIV-1). As to the kind of experiment: cell-based or functional assay.
For test [28], the target named is HIV-1 Env pseudovirus T278-50 (HIV-1). As to the kind of experiment: cell-based or functional assay.
Test [29] deals with HIV-1 Env pseudovirus 3301.v1.c24 (HIV-1). Put plainly: cell-based or functional assay.
Test [30] has as its target HIV-1 Env pseudovirus C4118.c09 (HIV-1). Put plainly: cell-based or functional assay.
The target in test [31] is HIV-1 Env pseudovirus X1632_S2_B10 (HIV-1). Put plainly: cell-based or functional assay.
In test [32] the target is HIV-1 Env pseudovirus X1193_c1 (HIV-1). Put plainly: cell-based or functional assay.
Test [33] has as its target HIV-1 Env pseudovirus CNE5 (HIV-1). Put plainly: cell-based or functional assay.
Test [34] deals with HIV-1 Env pseudovirus 231966.c02 (HIV-1). Put plainly: cell-based or functional assay.
For test [35], the target named is HIV-1 Env pseudovirus P1981_C5_3 (HIV-1). As to the kind of experiment: cell-based or functional assay.
The target in test [36] is HIV-1 Env pseudovirus R3265.c06 (HIV-1). Put plainly: cell-based or functional assay.
In test [37] the target is HIV-1 Env pseudovirus 6811.v7.c18 (HIV-1). As to the kind of experiment: cell-based or functional assay.
Test [38] deals with HIV-1 Env pseudovirus C1080.c03 (HIV-1). As to the kind of experiment: cell-based or functional assay.
Test [39] deals with HIV-1 Env pseudovirus 3817.v2.c59 (HIV-1). Put plainly: cell-based or functional assay.
Test [40] has as its target HIV-1 Env pseudovirus 620345.c01 (HIV-1). As to the kind of experiment: cell-based or functional assay.
In test [41] the target is HIV-1 Env pseudovirus X2088_c9 (HIV-1). As to the kind of experiment: cell-based or functional assay.
For test [42], the target named is HIV-1 Env pseudovirus BJOX025000.01.1 (HIV-1). As to the kind of experiment: cell-based or functional assay.
Test [43] deals with HIV-1 93TH057 gp120 coree (HIV-1). As to the kind of experiment: EBI PISA on PDB 5te6 (structure not solved in this filing).
In test [44] the target is monomeric HIV-1 Ba-L gp120 (HIV-1 Ba-L). As to the kind of experiment: retention on the gp120 affinity column.
For test [45], the target named is HIV-1 93TH057 gp120 coree (HIV-1). Put plainly: EBI PISA on PDB 3ngb (structure not solved in this filing).

A value given as a limit tells only on which side of the number the result lay.

As for 45-46 (antibody), the IC50 (Titer in TZM.bl cells) was 0.1 µg/mL in test [1]; above 50 µg/mL in test [2]; 0.02 µg/mL in [3]; 0.06 µg/mL in [4]; 12.8 µg/mL in [5]; 1.68 µg/mL in [6]. Besides, the IC50 (Titer in TZM.bl cells) was above 50 µg/mL in test [7]; 0.02 µg/mL in [8]; 0.01 µg/mL in [9]; 0.23 µg/mL in test [10]; 0.03 µg/mL in test [11]; 0.08 µg/mL in [12]. The IC50 (Titer in TZM.bl cells) in test [13] was 0.03 µg/mL; in test [14], 0.3 µg/mL; in [15] it was above 30 µg/mL; in test [16], above 50 µg/mL; in test [17] it was 1.66 µg/mL; in test [18], 0.26 µg/mL. The IC50 (Titer in TZM.bl cells) in test [19] was 0.03 µg/mL; in test [20] it was above 30 µg/mL; in test [21], 0.87 µg/mL; in test [22] it was 0.2 µg/mL; in test [23], 0.06 µg/mL; in test [24] it was 0.07 µg/mL. The IC50 (Titer in TZM.bl cells) was 0.01 µg/mL in [25]; above 50 µg/mL in [26]; 5.26 µg/mL in test [27]; above 30 µg/mL in [28]; 0.01 µg/mL in test [29]; 0.14 µg/mL in test [30]. Further, the IC50 (Titer in TZM.bl cells) in test [31] amounted to 0.07 µg/mL; in test [32] it was 0.04 µg/mL; in test [33] it was 0.09 µg/mL; in test [34], 1.11 µg/mL; in [35], 0.05 µg/mL; in [36] it was 0.04 µg/mL. The IC50 (Titer in TZM.bl cells) is 0.03 µg/mL in [37]; 1.79 µg/mL in test [38]; above 50 µg/mL in [39]; above 30 µg/mL in test [40]; above 50 µg/mL in test [41]; 0.18 µg/mL in test [42]. Further, the IC80 (Titer in TZM.bl cells) in [1] is 0.1 µg/mL; in test [2] it was above 50 µg/mL; in test [3], 0.07 µg/mL; in test [4], 0.26 µg/mL; in test [5], above 50 µg/mL; in test [6] it was 1.68 µg/mL. Also, the IC80 (Titer in TZM.bl cells) in test [7] was above 50 µg/mL; in [8], 0.08 µg/mL; in test [9], 0.03 µg/mL; in test [10], 2.38 µg/mL; in test [11], 0.18 µg/mL; in test [12], 0.08 µg/mL. Further, the IC80 (Titer in TZM.bl cells) in test [13] was 0.13 µg/mL; in test [14], 1.49 µg/mL; in test [15] it was above 30 µg/mL; in test [16] it was above 50 µg/mL; in test [17] it was 6.57 µg/mL; in test [18], 1.16 µg/mL. In addition, the IC80 (Titer in TZM.bl cells) is 0.12 µg/mL in [19]; above 30 µg/mL in test [20]; 6.37 µg/mL in test [21]; 0.9 µg/mL in test [22]; 0.38 µg/mL in [23]; above 50 µg/mL in test [24]. Besides, the IC80 (Titer in TZM.bl cells) in test [25] is 0.04 µg/mL; in test [26] it was above 50 µg/mL; in test [27], 5.26 µg/mL; in test [28], above 30 µg/mL; in test [29], 0.03 µg/mL; in test [30], 0.91 µg/mL. The IC80 (Titer in TZM.bl cells) in [31] is above 50 µg/mL; in [32], 0.16 µg/mL; in [33], 0.41 µg/mL; in [34] it was 11.4 µg/mL; in [35], 0.22 µg/mL; in [36], 0.44 µg/mL. Besides, the IC80 (Titer in TZM.bl cells) in test [37] is 0.13 µg/mL; in test [38], 18 µg/mL; in [39], above 50 µg/mL; in [40], above 30 µg/mL; in test [41], above 50 µg/mL; in [42] it was 10 µg/mL.
Take N6 Fab: the buried surface area, CDR H3 in [43] worked out at 123 Å^2.
As to Synagis (antibody), the recovery on the gp120 affinity column in test [44] was below 1%.
Take VRC01 Fab: in [45], the buried surface area, CDR H3 worked out at 160 Å^2.

Values taken from US20240117018A1.
